Assay: yeast display, Sf9 membrane polyspecificity reagent, FACS + sequencing; frameworks hold sequencing errors
How it was run: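 A synthetic nanobody library was expressed on Saccharomyces cerevisiae BJ5465 by galactose induction for 36–48 hours. The library was stained for 1 hour at 4 °C with 10% biotinylated, detergent-solubilized Sf9 membrane reagent and enriched with streptavidin microbeads before FACS. Low and high (top ~1%) gates were set on anti-HA fluorescence for expression and streptavidin fluorescence for reagent binding, and each polyreactivity label reflects the gate of origin.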

Sequence | polyreactivity (PSR sort gate)
QVQLVESGGGLVQAGGSLRLSCAASGIIFIKYAMGWYRQAPGKERELVAGINVSSGGDTYADSVKGRFTISRDNAKNTVYLQMNSLKPEDTAVYYCNAGTGGPDYVFITEYDYWGQGTQVTVSS | low polyreactivity
QVQLVESGGGLVQAGGSLRLSCAASGIIFINYVMGWYRQAPGKERELVAAISIGGGRTYYADSVKGRFTISRDNAKNTVYLQMNSLKPEDTAVYYCAAEYFYGYKDVYDYWGQGTQVTVSS | high polyreactivity
QVQLVESGGGLVQAGGSLRLSCAASGIIFIYNAMGWYRQAPGKERELVADIRRSGSTSYADSVKGRFTISRDNAKNTVYLQMNSLKPEDTAVYYCAADTSTWFGAYYLRDPYDYWGQGTQVTVSS | low polyreactivity
QVQLVESGGGLVQAGGSLRLSCAASGIIFKGYDMGWYRQAPGKERELVAAISSGSTNYADSVKGRFTISRDNAKNTVYLQMNSLKPEDTAVYYCAVRTYRYQSWGNYYLEYDYWGQGTQVTVSS | low polyreactivity
QVQLVESGGGLVQAGGSLRLSCAASGIIFKIYAMGWYRQAPGKARELVAAISWRGGSTYYADSVKGRFTISRDNAKNTVYLQMNSLKPEDTAVYYCAAARGYRTGYGYWGQGTQVTVSS | high polyreactivity
QVQLVESGGGLVQAGGSLRLSCAASGIIFKQYAMGWYRQAPGKERELVAAITGSGGRTTYADSVKGRFTISRDNAMNTVYLQMNSLKPEDTAVYFCAAVGLSGWRDGYWGQGTQVTVSS | high polyreactivity
QVQLVESGGGLVQAGGSLRLSCAASGIIFKRNAMGWYRQAPGKERELVAAITYRGTSTYYADSVKGRFTISRDNAKNTVYLQMNSLKPEDTAVYYCNAVGRSSGSAFNYWGQGTQVTVSS | high polyreactivity
QVQLVESGGGLVQAGGSLRLSCAASGIIFKRYVMGWYRQAPGKDRQLVAGISWSGVSTFYADSVKGRFTISRDNAKNTVYLQMNSLKPEDTAVYYCAADRARYYYQAYGAYGYWGQGTQVTVSS | high polyreactivity
QVQLVESGGGLVQAGGSLRLSCAASGIIFKSYVMGWYRQAPGKEREFVARITYRGGSTYYADSVKGRFTISRDNAKNTVYLQMNSLKPEDTAVYYCNKKNPQDLTENGYWGQGTQVTVSS | high polyreactivity
QVQLVESGGGLVQAGGSLRLSCAASGIIFKTYAMGWYRQAPGKERELVAGIDYSGGGTSYADSVKGRFTISRDNAKNTVYLQMNSLKPEDTAVYYCAADAYSGAYFTYLGEIYDYWGQGTQVTVSS | low polyreactivity
QVQLVESGGGLVQAGGSLRLSCAASGIIFKTYTMGWYRTAPGKERELVAAITFSGGSTYYADSVKGRFTISRDNAKNTVYLQMNSLKPEDTAVYYCADTHRFWWYSDDYWGQGTQVTVSS | high polyreactivity
QVQLVESGGGLVQAGGSLRLSCAASGIIFKVYAMGWYRQAPGKERELVAAISKSGGSTYYADSVKGRFTISRDNAKNTVYLQMNSLNPEDTAVYYCAARDYARYASYYYWGQGTQVTVSS | high polyreactivity
QVQLVESGGGLVQAGGSLRLSCAASGIIFLDNAMGWYRQAPGKERELVAAITTGGITYYADSVKGRFTISRDNAKNTVYLQMNSLKPEDTAVYYCAADNEWPRYDYWGQGTQVTVSS | low polyreactivity
QVQLVESGGGLVQAGGSLRLSCAASGIIFLDYVMGWYRQAPGKERELVAAINSGGSTYYADSVKGRFTISRANAKNNVYLQMNSLKPEDSAVYYCNAVFYDDWQIYDYWGQGTQVTVSS | low polyreactivity
QVQLVESGGGLVQAGGSLRLSCAASGIIFLKNAMGWYRQAPGKERELVAAITVSGARTYYADSVKGRFTISRDNAKNTVYLQMNSLKPEDTAVYYCATDRSYQRYNYWGQGTQVTVSS | high polyreactivity
QVQLVESGGGLVQAGGSLRLSCAASGIIFLKYAMGWYRQAPGKERELVAGISVRGGRTYYADSVKGRFTISRDNAKNTVYLQMNSLKPEDTAVYYCAKERSRYYPYDYWGQGTQVTVSS | high polyreactivity
QVQLVESGGGLVQAGGSLRLSCAASGIIFLNNAMGCYRQAPGKERELVAAITRTSTSTYYADSVKGRFTISRDNAKNTVYLQMNSLKPEDTAVYYSLVYWGQGTQVTVSS | low polyreactivity
QVQLVESGGGLVQAGGSLRLSCAASGIIFLQYAMGWYRQAPGKERELVAAITRRGDRTYYADSVKGRFTISRDNAKNTVYLQMNSLKPEDTAVYYCAASYWYRDYYYWGQGTQVTVSS | high polyreactivity
QVQLVESGGGLVQAGGSLRLSCAASGIIFLRNTMGWYRQAPGKERELVASISRRGGSTYYADSVKGRFTISRDNAKNTVYLQMNSLKPEDTAVYYCNKRSLEKGDYWGQGTQVTVTS | high polyreactivity
QVQLVESGGGLVQAGGSLRLSCAASGIIFLTHAMGWYRQAPGKERELVAAITAIGGSTYYADSVKGRFTLSRDNAMNTVYLLMISLKPEDTADYYCAADFSYVYYLYDFWGQGTKVTVSS | low polyreactivity
QVQLVESGGGLVQAGGSLRLSCAASGIIFNFNAMGWYSQAPGKERELVAGISYGGGRTYYADSVKGRFTISRDNAINTVYLQMNSLKPEDTAFYYCNKYGLGIYRGYYWGQGTQVTVSS | high polyreactivity
QVQLVESGGGLVQAGGSLRLSCAASGIIFNHYAMGWYGQAPGKERELVAAISRRGGSTYDADSVKGRFTISRDNAKNTVYLQMNSLKPEDTAVYYCNDRSFATGSKVPARGYWGQGTQVTVSS | high polyreactivity
QVQLVESGGGLVQAGGSLRLSCAASGIIFNRYAMGWYRQAPGKERELVAAITYSGDNTYYADSVKGRFTISRDNAKNTVYLQMNSLKPEDTAVYYCAAVSSRGGDYYWGQGTQVTVSS | high polyreactivity
QVQLVESGGGLVQAGGSLRLSCAASGIIFNSNAMGWYRQAPGKERELVAGISRGSSTSYADSVKGRFTISRDNAKNPVYLQMNSLKPADNAVYFCNAEVYSPQQFTPPDRYYYWGQGTQVTVSS | low polyreactivity
QVQLVESGGGLVQAGGSLRLSCAASGIIFNVNAMGWYRQAPGKERELVASINSGSTYYADSVKGRFTISRDNAKNTVYLQMNSLKPEDTAVYYCATGARSPPWGRSKKRTYYYWGQGTQVTVSS | high polyreactivity
QVQLVESGGGLVQAGGSLRLSCAASGIIFNYYTMGWYRQAPGKERELVAVITSRGSSPYYADSVKGRFTISRDNAKNTVNLQMNSLKPDDTAVYYCAKVRPYLDTNEYYYWGQGTQVTVSS | high polyreactivity
QVQLVESGGGLVQAGGSLRLSCAASGIIFPAYAMGWYRQARGKERELVAAITSRGGSTYYADSVKGRFTISRDNAKNTVYLQMNSLKPEDTAVYYCNAAALADYDYWGQGTQVTVSS | low polyreactivity
QVQLVESGGGLVQAGGSLRLSCAASGIIFPGKAMGWYRQAPGKERELVAAISSGGNTKYADSVKGRFTISRDNAKNTGYLQMNSLNPEDTAVYYCAAAARARNPSYGRNYWGQGTQVTVSS | high polyreactivity
QVQLVESGGGLVQAGGSLRLSCAASGIIFPQNAMGWSRQAPGKERELVAAISKSGGRTYYADSVKGRFTISRDNAKNTVYVQMNSLKPEDSAVYYCAKVPYAYSRDRSAEDSWGQGTQVTVSS | high polyreactivity
QVQLVESGGGLVQAGGSLRLSCAASGIIFPRYAMGWYRQAPGKERELVAAITRRGGRTYYADSVKGRFTISRDNAKNTVYLQMNSLKPEDTAVYYCNADFISPRPPKATDEDYWGQGTQVTVSS | high polyreactivity

Source: the nanobody polyreactivity screen of Harvey et al. (2022)
